This is an account of results in article PMC9023255, “Mechanisms of substrate recognition and N6-methyladenosine demethylation revealed by crystal structures of ALKBH5–RNA complexes”.

The target of this series is ALKBH5 74-292 (human, UniProt Q6P6C2 74-292). The series can be described thus: X-ray crystallography; Mn2+, sulfate in 2OG site (NOG added but not observed); 2.1 A, P32; GG(m6A)C ordered; Complex formation: 25 mM Tris pH 7.5, 400 uM protein, 333 uM RNA, 2 mM MnCl2, 2 or 10 mM NOG or 10 mM 2OG, on ice 30 min, then SEC in 25 mM Tris pH 7.5; mutant. Particulars: protein: recombinant; tags: N-terminal His6, removed by TEV protease; single strand.
Chain of ALKBH5 74-292 (Q6P6C2 74-292): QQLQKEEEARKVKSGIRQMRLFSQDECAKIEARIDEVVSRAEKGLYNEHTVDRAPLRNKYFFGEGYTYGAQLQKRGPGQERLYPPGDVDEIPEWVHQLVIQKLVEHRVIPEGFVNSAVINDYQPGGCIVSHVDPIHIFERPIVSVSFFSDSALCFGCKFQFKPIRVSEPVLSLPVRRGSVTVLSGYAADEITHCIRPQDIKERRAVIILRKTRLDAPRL

B1: 8-mer m6A ssRNA (ssRNA)
RNA: UGGACUGC
modifications: N6-methyladenosine at position 4 (m6A)
For the molecule B1, the binding result is on record as “binds”.
